± gives the uncertainty stated by the source.
Test: self-splicing fitness, log relative to wild type (ln ratio); higher = more splicing; Tetrahymena group I intron in knt gene, E. coli kanamycin selection, DiMSum; sequences stand for … in CUCUCU…GGAGGGAAAAGUUAUCAGGCAUGCACCUGGUAGCUAGUCUUUAAACCAAUAGAUUGCAUCGGUUUAAAAGGCAAGACCGUCAAAUUGCGGGAAAGGGGUCAACAGCCGUUCAGUACCAAGUCUCAGGGGAAACUUUGAGAUGGCCUUGCAAAGGGUAUGGUAAUAAGCUGACGGACAUGGUCCUAACCACGCAGCCAAGUCCUAAGUCAACAGAUCUUCUGUUGAUAUGGAUGCAGUUCACAGACUAAAUGUCGGUCGGGGAAGAUGUAUUCUUCUCAUAAGAUAUAGUCGGACCUCUCCUUAAUGGGAGCUAGCGGAUGAAGUGAUGCAACACUGGAGCCGCUGGGAACUAAUUUGUAUGCGAAAGUAUAUUGAUUAGUUUUGGAGUACUCGUGGUCG
Summary of the method: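 DiMSum derived fitness as the error-weighted combination of fold changes across replicates, kanamycin versus no kanamycin, normalised to wild type. E. coli BL21(DE3) held the library, which randomised all eight P1ex-region intron nucleotides within the knt kanamycin-resistance gene on pET-22b(+). Six replicate transformations grew overnight at 37°C or 30°C on LB agar with or without 25 μg/mL kanamycin, also containing 100 μg/mL carbenicillin, 50 μM IPTG and 0.2% rhamnose, and pooled colonies were amplicon-sequenced on an Illumina HiSeq 2500.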

| Sequence | self-splicing fitness (ln) (30 °C) | self-splicing fitness (ln) (37 °C) |
| --- | --- | --- |
| CUUAAGCAAUAUUACGACUA | -1.35 ± 0.35 | – |
| CUUAAGCAAUAUUACGAGGC | -3.19 ± 0.32 | -2.53 ± 0.41 |
| CUUAAGCAAUAUUACGAGUC | -3.23 ± 0.33 | -2.33 ± 0.29 |
| CUUAAGCAAUAUUACGAUCA | -2.93 ± 0.26 | -3.2 ± 0.33 |
| CUUAAGCAAUAUUACGCAAA | -2.76 ± 0.4 | – |
| CUUAAGCAAUAUUACGCGAU | -1.91 ± 0.19 | -0.837 ± 0.18 |
| CUUAAGCAAUAUUACGCUCG | -2.09 ± 0.22 | 0.521 ± 0.29 |
| CUUAAGCAAUAUUACGCUUA | -3.39 ± 0.32 | -1.58 ± 0.2 |
| CUUAAGCAAUAUUACGGAGG | -2.43 ± 0.21 | -3.19 ± 0.37 |
| CUUAAGCAAUAUUACGGGAU | -2.82 ± 0.17 | -1.94 ± 0.19 |
| CUUAAGCAAUAUUACGGUAC | -3.99 ± 0.36 | -3.27 ± 0.32 |
| CUUAAGCAAUAUUACGGUGG | -1.7 ± 0.092 | -0.937 ± 0.1 |
| CUUAAGCAAUAUUACGGUUA | – | -2.16 ± 0.29 |
| CUUAAGCAAUAUUACGUACG | -0.58 ± 0.076 | -0.451 ± 0.079 |
| CUUAAGCAAUAUUACGUCCG | -0.258 ± 0.11 | 0.679 ± 0.19 |
| CUUAAGCAAUAUUACGUCGU | -4.59 ± 0.46 | -2.22 ± 0.29 |
| CUUAAGCAAUAUUACGUCUA | -3.67 ± 0.25 | -2.97 ± 0.23 |
| CUUAAGCAAUAUUACGUCUG | -0.605 ± 0.067 | -0.254 ± 0.08 |
| CUUAAGCAAUAUUACGUGUU | -4.03 ± 0.15 | -2.66 ± 0.15 |
| CUUAAGCAAUAUUACGUUCG | -1.05 ± 0.075 | -0.0528 ± 0.099 |
| CUUAAGCAAUAUUACGUUGG | -2.67 ± 0.15 | -2.4 ± 0.14 |
| CUUCAGCAAUAUUACGAAAG | -2.44 ± 0.077 | -1.55 ± 0.12 |
| CUUCAGCAAUAUUACGAAGC | -2.1 ± 0.17 | -2.43 ± 0.48 |
| CUUCAGCAAUAUUACGACUC | -2.49 ± 0.21 | -1.46 ± 0.23 |
| CUUCAGCAAUAUUACGAGGU | -4.39 ± 0.42 | -2.9 ± 0.27 |

| Sequence | self-splicing fitness (ln) (30 °C) | self-splicing fitness (ln) (37 °C) |
| --- | --- | --- |
| CUUCAGCAAUAUUACGAUAA | -2.68 ± 0.19 | -1.07 ± 0.14 |
| CUUCAGCAAUAUUACGAUAC | -3.22 ± 0.19 | -2.14 ± 0.33 |
| CUUCAGCAAUAUUACGCCAA | – | -2.31 ± 0.48 |
| CUUCAGCAAUAUUACGCCAG | -0.975 ± 0.11 | -0.132 ± 0.17 |
| CUUCAGCAAUAUUACGCGGA | -1.83 ± 0.21 | -2.74 ± 0.3 |
| CUUCAGCAAUAUUACGCGUG | -0.775 ± 0.08 | -0.978 ± 0.1 |
| CUUCAGCAAUAUUACGGAGG | -3.09 ± 0.21 | -2.09 ± 0.26 |
| CUUCAGCAAUAUUACGGCAU | -2.78 ± 0.17 | -2.1 ± 0.2 |
| CUUCAGCAAUAUUACGGGGC | -2.93 ± 0.22 | -2.21 ± 0.34 |
| CUUCAGCAAUAUUACGGUGG | -2.39 ± 0.12 | -1.18 ± 0.15 |
| CUUCAGCAAUAUUACGGUUC | -3.39 ± 0.2 | -1.69 ± 0.18 |
| CUUCAGCAAUAUUACGUAAG | -0.469 ± 0.084 | -0.514 ± 0.1 |
| CUUCAGCAAUAUUACGUACU | -4.13 ± 0.19 | -2.8 ± 0.19 |
| CUUCAGCAAUAUUACGUCUC | -3.17 ± 0.2 | -3.03 ± 0.2 |
| CUUCAGCAAUAUUACGUGGG | -3.96 ± 0.16 | -2.38 ± 0.19 |
| CUUCAGCAAUAUUACGUGUA | -3.11 ± 0.13 | -3.22 ± 0.21 |
| CUUCAGCAAUAUUACGUUGC | -4.23 ± 0.3 | -3.04 ± 0.25 |
| CUUGAGCAAUAUUACGAACU | -4.03 ± 0.46 | -2.09 ± 0.32 |
| CUUGAGCAAUAUUACGAAGU | -3.67 ± 0.33 | -3.38 ± 0.35 |
| CUUGAGCAAUAUUACGACAG | -1.19 ± 0.1 | -0.98 ± 0.14 |
| CUUGAGCAAUAUUACGAGAU | -3.68 ± 0.37 | -0.585 ± 0.15 |
| CUUGAGCAAUAUUACGAUAC | -3.57 ± 0.42 | – |
| CUUGAGCAAUAUUACGCACC | – | -1.68 ± 0.4 |
| CUUGAGCAAUAUUACGCGGC | -2.63 ± 0.27 | -1.43 ± 0.43 |

From the supplement of paper PMC7877785
